{"source": "patent US20090258001A1", "key": {"[1]": {"target": "CD3 (CD3/TCR complex) on CD4+ and CD8+ T cells of patients (human) (UniProt P07766)", "sequence (P07766 23-207, chain 1 of 3)": "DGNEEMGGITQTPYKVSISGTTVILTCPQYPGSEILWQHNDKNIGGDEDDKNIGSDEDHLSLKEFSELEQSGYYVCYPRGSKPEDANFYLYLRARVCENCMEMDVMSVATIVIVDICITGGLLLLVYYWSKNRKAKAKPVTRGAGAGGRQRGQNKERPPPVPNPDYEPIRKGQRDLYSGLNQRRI", "sequence (chain, as listed by the source, chain 2 of 3)": "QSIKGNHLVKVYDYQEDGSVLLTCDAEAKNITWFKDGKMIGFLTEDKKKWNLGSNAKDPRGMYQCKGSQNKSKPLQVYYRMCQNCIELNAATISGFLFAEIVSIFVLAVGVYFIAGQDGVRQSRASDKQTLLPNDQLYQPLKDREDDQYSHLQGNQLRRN", "sequence (chain, as listed by the source, chain 3 of 3)": "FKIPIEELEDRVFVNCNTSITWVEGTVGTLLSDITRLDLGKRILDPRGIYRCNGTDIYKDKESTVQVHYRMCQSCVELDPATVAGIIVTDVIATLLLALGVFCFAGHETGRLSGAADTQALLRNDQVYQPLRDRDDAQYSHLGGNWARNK", "experiment": "flow cytometry of CD4+ T cells, free CD3 sites by biotinylated TRX4; Example 4 Cohort C, 0.2 mg"}, "[2]": {"target": "CD3 (CD3/TCR complex) on CD4+ and CD8+ T cells of patients (human) (UniProt P07766)", "experiment": "flow cytometry of CD4+ T cells, free CD3 sites by biotinylated TRX4; Example 4 Cohort B, 0.3 mg"}, "[3]": {"target": "CD3 (CD3/TCR complex) on CD4+ and CD8+ T cells of patients (human) (UniProt P07766)", "experiment": "flow cytometry of CD4+ T cells, anti-human IgG; Example 4 Cohort A*, end of 0.15 mg infusion"}, "[4]": {"target": "CD3 (CD3/TCR complex) on CD4+ and CD8+ T cells of patients (human) (UniProt P07766)", "experiment": "flow cytometry of CD4+ T cells, anti-human IgG; Example 4 Cohort C, end of 0.2 mg infusion"}, "[5]": {"target": "CD3 (CD3/TCR complex) on CD4+ and CD8+ T cells of patients (human) (UniProt P07766)", "experiment": "flow cytometry of CD4+ T cells, anti-human IgG; Example 4 Cohort B, end of 0.75 mg infusion"}, "[6]": {"target": "CD3 (CD3/TCR complex) on CD4+ and CD8+ T cells of patients (human) (UniProt P07766)", "experiment": "flow cytometry, free sites by biotinylated TRX4; Example 4, 4-dose cohorts, 24 hours after infusion"}, "[7]": {"target": "CD3 (CD3/TCR complex) on CD4+ and CD8+ T cells of patients (human) (UniProt P07766)", "experiment": "flow cytometry of patients' CD4+ T cells, anti-human IgG; Example 3 Cohort 1 (0.1 mg x3), end of second infusion"}, "[8]": {"target": "CD3 (CD3/TCR complex) on CD4+ and CD8+ T cells of patients (human) (UniProt P07766)", "experiment": "flow cytometry of CD4+ T cells, anti-human IgG; Example 4 Cohort A, end of 0.5 mg infusion"}, "[9]": {"target": "CD3 (CD3/TCR complex) on CD4+ and CD8+ T cells of patients (human) (UniProt P07766)", "experiment": "flow cytometry of CD4+ T cells, free CD3 sites by biotinylated TRX4; Example 4 Cohort B, 2 hours after last infusion"}, "[10]": {"target": "CD3 (CD3/TCR complex) on CD4+ and CD8+ T cells of patients (human) (UniProt P07766)", "experiment": "flow cytometry of CD4+ T cells, free CD3 sites by biotinylated TRX4; Example 4 Cohort C, 0.3 mg"}, "[11]": {"target": "CD3 (CD3/TCR complex) on CD4+ and CD8+ T cells of patients (human) (UniProt P07766)", "experiment": "flow cytometry of CD4+ T cells, anti-human IgG; Example 4 Cohort A, end of 0.1 mg infusion"}, "[12]": {"target": "CD3 (CD3/TCR complex) on CD4+ and CD8+ T cells of patients (human) (UniProt P07766)", "experiment": "flow cytometry of CD4+ T cells, anti-human IgG; Example 4 Cohort C, end of 0.1 mg infusion"}, "[13]": {"target": "CD3 (CD3/TCR complex) on CD4+ and CD8+ T cells of patients (human) (UniProt P07766)", "experiment": "flow cytometry of CD4+ T cells, anti-human IgG; Example 4 Cohort B, end of 0.2 mg infusion"}, "[14]": {"target": "CD3 (CD3/TCR complex) on CD4+ and CD8+ T cells of patients (human) (UniProt P07766)", "experiment": "flow cytometry of CD4+ T cells, anti-human IgG; Example 4 Cohort A, end of 0.3 mg infusion"}, "[15]": {"target": "CD3 (CD3/TCR complex) on CD4+ and CD8+ T cells of patients (human) (UniProt P07766)", "experiment": "flow cytometry of CD4+ T cells, free CD3 sites by biotinylated TRX4; Example 4 Cohort B, 0.75 mg"}, "[16]": {"target": "CD3 (CD3/TCR complex) on CD4+ and CD8+ T cells of patients (human) (UniProt P07766)", "experiment": "flow cytometry of CD4+ T cells, free CD3 sites by biotinylated TRX4; Example 4 Cohort C, 0.1 mg"}, "[17]": {"target": "CD3 (CD3/TCR complex) on CD4+ and CD8+ T cells of patients (human) (UniProt P07766)", "experiment": "flow cytometry of CD4+ T cells, anti-human IgG; Example 4 Cohort A, 2 hours after 0.5 mg infusion"}, "[18]": {"target": "CD3 (CD3/TCR complex) on CD4+ and CD8+ T cells of patients (human) (UniProt P07766)", "experiment": "flow cytometry of CD4+ T cells, free CD3 sites by biotinylated TRX4; Example 3 Cohort 2, first 0.5 mg dose"}, "[19]": {"target": "CD3 (CD3/TCR complex) on CD4+ and CD8+ T cells of patients (human) (UniProt P07766)", "experiment": "flow cytometry of CD4+ T cells, free CD3 sites by biotinylated TRX4; Example 3 Cohort 2, third 0.5 mg dose"}, "[20]": {"target": "CD3 (CD3/TCR complex) on CD4+ and CD8+ T cells of patients (human) (UniProt P07766)", "experiment": "flow cytometry of CD4+ T cells, free CD3 sites by biotinylated TRX4; Example 4 Cohort A, day after last infusion"}, "[21]": {"target": "CD3 (CD3/TCR complex) on CD4+ and CD8+ T cells of patients (human) (UniProt P07766)", "experiment": "flow cytometry of CD4+ T cells, free CD3 sites by biotinylated TRX4; Example 4 Cohort A*, 0.05 mg"}, "[22]": {"target": "CD3 (CD3/TCR complex) on CD4+ and CD8+ T cells of patients (human) (UniProt P07766)", "experiment": "flow cytometry of CD4+ T cells, free CD3 sites by biotinylated TRX4; Example 3 Cohort 3, 0.5 mg, end of infusion"}, "[23]": {"target": "CD3 (CD3/TCR complex) on CD4+ and CD8+ T cells of patients (human) (UniProt P07766)", "experiment": "flow cytometry of CD4+ T cells, free CD3 sites by biotinylated TRX4; Example 3 Cohort 3, 0.3 mg"}, "[24]": {"target": "CD3 (CD3/TCR complex) on CD4+ and CD8+ T cells of patients (human) (UniProt P07766)", "experiment": "flow cytometry of CD4+ T cells, anti-human IgG; Example 3 Cohort 3, end of 0.3 mg infusion"}, "[25]": {"target": "CD3 (CD3/TCR complex) on CD4+ and CD8+ T cells of patients (human) (UniProt P07766)", "experiment": "flow cytometry of CD4+ T cells, free CD3 sites by biotinylated TRX4; Example 3 Cohort 2, 2 hours after end of infusion"}}}
{"substance": "TRX4 antibody", "values": [{"measurement": "percent saturation of CD3", "setting": "[1]", "value": 95, "unit": "%"}, {"measurement": "percent saturation of CD3", "setting": "[2]", "value": 80, "unit": "%"}, {"measurement": "cell-bound TRX4 (MESF of anti-human IgG)", "setting": "[3]", "value": 800000, "unit": "MESF units"}, {"measurement": "cell-bound TRX4 (MESF of anti-human IgG)", "setting": "[4]", "value": "1.2e+06", "unit": "MESF units"}, {"measurement": "cell-bound TRX4 (MESF of anti-human IgG)", "setting": "[5]", "value": 480000, "unit": "MESF units"}, {"measurement": "percent saturation of CD3", "setting": "[6]", "value": 40, "unit": "%"}, {"measurement": "cell-bound TRX4 (MESF of anti-human IgG)", "setting": "[7]", "value": 300000, "unit": "MESF units"}, {"measurement": "cell-bound TRX4 (MESF of anti-human IgG)", "setting": "[8]", "value": 450000, "unit": "MESF units"}, {"measurement": "percent saturation of CD3", "setting": "[9]", "value": 70, "unit": "%"}, {"measurement": "percent saturation of CD3", "setting": "[10]", "value": 99, "unit": "%"}, {"measurement": "cell-bound TRX4 (MESF of anti-human IgG)", "setting": "[11]", "value": 200000, "unit": "MESF units"}, {"measurement": "cell-bound TRX4 (MESF of anti-human IgG)", "setting": "[12]", "value": 800000, "unit": "MESF units"}, {"measurement": "cell-bound TRX4 (MESF of anti-human IgG)", "setting": "[13]", "value": 400000, "unit": "MESF"}, {"measurement": "cell-bound TRX4 (MESF of anti-human IgG)", "setting": "[14]", "value": 600000, "unit": "MESF units"}, {"measurement": "percent saturation of CD3", "setting": "[15]", "value": 95, "unit": "%"}, {"measurement": "percent saturation of CD3", "setting": "[16]", "value": 50, "unit": "%"}, {"measurement": "cell-bound TRX4 (MESF of anti-human IgG)", "setting": "[17]", "value": 400000, "unit": "MESF units"}, {"measurement": "percent saturation of CD3", "setting": "[18]", "value": 90, "unit": "%"}, {"measurement": "percent saturation of CD3", "setting": "[19]", "value": 95, "unit": "%"}, {"measurement": "percent saturation of CD3", "setting": "[20]", "value": 35, "unit": "%"}, {"measurement": "percent saturation of CD3", "setting": "[21]", "value": 50, "unit": "%"}, {"measurement": "percent saturation of CD3", "setting": "[22]", "value": 90, "unit": "%"}, {"measurement": "percent saturation of CD3", "setting": "[23]", "value": 70, "unit": "%"}, {"measurement": "cell-bound TRX4 (MESF of anti-human IgG)", "setting": "[24]", "value": 300000, "unit": "MESF units"}, {"measurement": "percent saturation of CD3", "setting": "[25]", "value": 55, "unit": "%"}]}
